5 molecules from publication PMC11006873, “Fuzzy recognition by the prokaryotic transcription factor HigA2 from Vibrio cholerae” (Nature Communications, 2024) can be followed below.

The Kd is the constant that tells how readily two partners part at equilibrium. Usually stoichiometry N stands for a count of units in the complex or per binding partner.

The target in data set [1] is HigA2Phd (Vibrio cholerae (globular domain); Phd IDR organism not stated) (UniProt Q9KMA5). The data set can be described thus: ITC. The following applies: ITC: 20 mM sodium phosphate pH 7.0, 150 mM NaCl, 1 mM EDTA, 25 or 5 C; EMSA/footprint: 20 mM Tris pH 8, 200 mM NaCl; NMR: 20 mM sodium phosphate pH 6.8, 130 mM …. For orientation: A gel shift assay detects complexes by their altered migration in electrophoresis.

For data set [2], the target named is T1, HigA2 (Vibrio cholerae, UniProt Q9KMA5). The data set can be described thus: X-ray crystallography; HigA2 dimer; residues 37-104 visible; ITC: 20 mM sodium phosphate pH 7.0, 150 mM NaCl, 1 mM EDTA, 25 or 5 C; EMSA/footprint: 20 mM Tris pH 8, 200 mM NaCl; NMR: 20 mM sodium phosphate pH 6.8, 130 mM. The following applies: protein: recombinant; tags: C-terminal His6, uncleavable; chain copies: 2; blunt.

Data set [3] deals with T1, HigA2. The data set can be described thus: ITC; 25 C; ITC: 20 mM sodium phosphate pH 7.0, 150 mM NaCl, 1 mM EDTA, 25 or 5 C; EMSA/footprint: 20 mM Tris pH 8, 200 mM NaCl; NMR: 20 mM sodium phosphate pH 6.8, 130 mM. The following applies: protein: recombinant; tags: C-terminal His6, uncleavable; chain copies: 2.
Data set [4] deals with T2, HigA2IDR (Vibrio cholerae, UniProt Q9KMA5).
T2 chain: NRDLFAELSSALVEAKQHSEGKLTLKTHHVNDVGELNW
Described as above. Conditions: tags: C-terminal extra W; chain copies: 2.

Data set [5] deals with T3, HigA2ΔIDR (Vibrio cholerae, UniProt Q9KMA5, del1-36). The description is as above. The following applies: protein: recombinant; tags: C-terminal His6, uncleavable; chain copies: 2.
The target of data set [6] is T1, HigA2. The data set can be described thus: ITC; 5 C; ITC: 20 mM sodium phosphate pH 7.0, 150 mM NaCl, 1 mM EDTA, 25 or 5 C; EMSA/footprint: 20 mM Tris pH 8, 200 mM NaCl; NMR: 20 mM sodium phosphate pH 6.8, 130 mM. Conditions: protein: recombinant; tags: C-terminal His6, uncleavable; chain copies: 2. In general terms: Isothermal titration calorimetry measures the heat released or taken up as one component is titrated into another.

Data set [7] concerns the target HigA2Mut(14-25) (Vibrio cholerae, UniProt Q9KMA5, L14S;V15S;E16A;A17T;K18A;Q19S;H20G;S21A;E22T;G23A;K24S;L25S). The description is as above. Conditions: protein: recombinant; tags: C-terminal His6, uncleavable; chain copies: 2.
In data set [8] the target is T3, HigA2ΔIDR. The description is as above. The following applies: protein: recombinant; tags: C-terminal His6, uncleavable; chain copies: 2.
Data set [9] deals with HigA2Mut(26-37) (Vibrio cholerae, UniProt Q9KMA5, T26S;L27S;K28A;H30A;H31S;V32G;N33A;D34T;V35A;G36S;E37S). The data set is described as above. The following applies: protein: recombinant; tags: C-terminal His6, uncleavable; chain copies: 2.
In data set [10] the target is HigA2Mut(2-13) (Vibrio cholerae, UniProt Q9KMA5, N3S;R4A;D5T;L6A;F7S;A8G;E9A;L10T;S11A;A13S). Described as above. Conditions: protein: recombinant; tags: C-terminal His6, uncleavable; chain copies: 2.
The target in data set [11] is HigA2Shuff (Vibrio cholerae, UniProt Q9KMA5, IDR sequence shuffled). Described as above. Conditions: protein: recombinant; tags: C-terminal His6, uncleavable; chain copies: 2.
Data set [12] deals with the molecule itself. Nature of the data set: crystal structure; HigA2 and the 17 bp operator fragment Opr17 mixed 1:1.2, 250 uM complex; sitting drop vapor diffusion; 0.2 M sodium chloride, 0.1 M Na HEPES pH 7.5, 12% (w/v) PEG 8000.

With “ATCTGTACGCTTGGTGCGTACACTT (double strand) [Opr25]”, in [1], the equilibrium dissociation constant (Kd) stood at 10000 nM.

B1: Opr17 (dsDNA)
DNA 1: GTACGCTTGGTGCGTAC
DNA 2: GTACGCACCAAGCGTAC
Consider B1, for which the binding result in data set [2] is “binds”.

B2: Opr45 (dsDNA)
DNA 1: AATTCTTGCCATCTGTACGCTTGGTGCGTACACTTCCTATATGAA
DNA 2: TTCATATAGGAAGTGTACGCACCAAGCGTACAGATGGCAAGAATT
On to B2, for which the values for the equilibrium dissociation constant (Kd) in data set [3] and in data set [5] were 25.1 ± 5.2 nM and 400 ± 50 nM, respectively. The binding result in data set [4] is “no binding”.

B3: Opr25 (dsDNA)
DNA 1: ATCTGTACGCTTGGTGCGTACACTT
DNA 2: AAGTGTACGCACCAAGCGTACAGAT
Consider B3, for which the Kd worked out at 15 ± 3 nM in data set [6]; 5100 ± 2400 nM in data set [7]; 480 ± 160 nM in [8]; 390 ± 130 nM in data set [10]; 37000 ± 20000 nM in data set [11]; 13.8 ± 5.8 nM in [3]. Also, in data set [9], the binding result is “no binding”.

B4: HigA2 antitoxin from Vibrio cholerae (full-length, C-terminal histidine tag) (natural protein)
chain: MSNRDLFAELSSALVEAKQHSEGKLTLKTHHVNDVGELNISPDEIVSIREQFNMSRGVFARLLHTSSRTLENWEQGRSVPNGQAVTLLKLVQRHPETLSHIAEL
notes: Antitoxin HigA2 of the higBA2 toxin-antitoxin module, Vibrio cholerae; N-terminal disordered region (residues 2-36) and globular C-terminal HTH domain (residues 37-104); only residues 37-104 are seen in the crystal; The histidine tag is un-cleavable (pET21b, NdeI/XhoI); also called wild-type HigA2; full-length HigA2; not shown: histidine tag, C-terminal, kept
As for B4, the “stoichiometry N” value in data set [12] came out at 2.
